Assay results as given in a protein production outcome set (Wang et al. 2014).

Assay: label from the status in PepcDB records

Sequence | protein production
MKPSQWTLRWVTLCGCGMLAASAAAVELPGTVQPSQLDERFKPRSEPQAKPEAPLVVPKQVAPQGSEQIRFKLREIRIEGNTRYDKAVLESYYQHMLGEQVSLAELVDLANRLTAKYRQDGFLLTQVVVPEQSIEGGKVRLQVIEGYLEHVQIKGTVDGPRVRVEELLAPLTEKRPLDADTLERGLLLVGDLPGVNVQSVLSPGQALGSSNLDVALQQQRYEGFVSLDNRGSHYTDPTTLAFGATEFSRLGFYEQIDVLGAISPFSDATRYIQLRGTLPLGGMFAGDTLQIMGSYSKVNPDIPDSVFPFDSVSKSTEGSISYNHPFIRSRSQNLSGGLALQWKDTETRLRDFASDASNPGRDHVRVFQQRLTYDWVDRWMGINLAEVRNNIGLDMWGATKKDDERRSREVADGRFVYLNGNIGRLQGLGGPWSVYGELQWQYSFDPLLPSERFGVGGSGIGRGFAPGNITGDRGFALKLEPRYGQAVGYSWLRSYQAYAFYDWGKTYNLDVDDDEQQKLGSIGAGVRFNLTDQLSFNPEIARQVIGEPADQRDGKRETRVLFNVVARF | failed
MKQILFLLAAVLLLGGCAEEKKTDVRWATFNIRYDNPQDSLNNWQYRKDRVCQFIKDHELDIVGMQEVLHNQFQDLRAGLPEYDGIGVGRDDGKTAGEYAPLFYRKDKYEVLDSNTFWLAENPDSVGMMGWDAVCVRIATWAKFKDKATGKIFMAVNTHFDHVGEEARRQSALLIIRKIKEIVGERPAVVTGDFNVTDASDAYETITTNEFVMKDAYKTAARVTGVDYTFHDFARIPAEDCEKIDFIFVTPQVLVKSCEIPAEVPEALLSDHNPQLADLEF | failed
MKQIVAGIVAHVDAGKTTLSEALLYRTGEIRKLGRVDHGDAFLDTNSLEKARGITIFAHQALVEHGDLRLTLLDTPGHVDFAAETERVLRVLDYAILVVSGTDGVQGHTETLWRLLARYGVPTFIFVNKCDAAGFAREAILAQLRKRLSDAIYPLPAMEQFTEGSAVPLDAFAEDIATLDEEAMNDYLEHGVLSVGRLRSMIAVRELFPVYFGSALKLEGVEEFLDGLETFTREREWPAAFAARVFKIAHDGQHNRMTWLRVTGGALKAKEIVSSSSCAAASTPSPAQEDDGMAWSEKVDQVRIYNGAKFETVTEVPAGSVCAVTGLTRTFPGEGLGAEPDAESPSLQPVLTYTVLPAGAESDTAGTSGAAKRGGTGHDSVNRDDAEHDAAKSETGRNEENDTAGQDAETDNSSPALPQFDDLTLHKVITALRELEDEDPLLHVVWVERLAEIHVQLMGTVQLEIIQQTLHDRFGLDVSFGPGSILYRETITAPVEGAGHFEPLRHYAEAHILLEPGEPGSGVTVGSALSENDLDRNWQRLILTHLTEREHLGVLVGAPLTDIKMTLVAGRAHLKHTEGGDFRQATYRAIRQGLMEARAGVSGRPETPVESRPDTTGEGNCRLLEPWYRFRLEVPADMIGRAMSDIQRMAGTFESPVTDGEYAVIEGEAPVSEMRDYAMDVNQYTHGHGHFSATFGGYKPCHDAKQVIAAAAYDPEADLDNTPDSVFCAHGAGYPVKWYKVPEFAHVDYVM | failed
MKQLFQKLYDHIEITLLVLLSVSFVTGMYMMMNRPIGPTMMDYVPQVIIGTIIIVDIVFLISGRKKENSK | failed
MKQLNDGDFIKIEFEMRVGEEKKLVSTSKADLAKENDIFDENARYGDIVVIVGQEGIFKEVNEAFRKAEPGQEVEVEVPPEDAFGQRLPSNIKIHTMREFQRLEHHHHHH | not failed
MKQLSGLLGELRQKLCAGFPEQAGIQQLIFPAPGLVGRQLLEWLTAQTHFPQFYWRHRDNHEEAAVCGQTRSFADMKDADDFIQQNPDANGLRIWGLNAFEPVMVFGQLTDNGLVSGKNAQASFLFLPRLEILRRGKKTSLTLNLSSETSLQKDALQAITFIDQLMAARALPVLNARIQHSSHTPGYPQWRNLIQQALNDIEQQKLDKVVLARTTTLTLNKPLSCAAFMAASRQVNHRCYHFMLRFDDRQAFLGSSPERLYLRQQLHLETEALAGTVSNLDSDPQAAVLADWLMHDEKNQRENLLVVDDICQRLQGGVTAVDVMPPEIIRLRKVQHLRRRICAQLSRASDTDCLQRLQPTAAVAGLPREAARQFIAKHELFSRGWYAGSAGYLSLKRTEFSVALRSARVDGQQIHLYAGAGIVAGSDAEQEWQEIDNKSAGLQSLLEHEAQPVKA | not failed
MKQMKFKYAYQLFFTQFIILLIACIMIGVLVSHSLKDYFYQSQVDDLTSYGQTISRDIRYSPQDATMQVLNTYQRILDVKKIHYTIKNANDETIYPTQMNQPLPKDFSISADDKKKLESGETVSKKIDNRFNKEMTIVYVPIMNGDKFVGSIVLNSPISGTEQVIGTINRYMFYTILLSITVALILSAILSKLQVNRINKLRAATKDVIQGNYNARLKENNFDEIGALAIDFNKMTQTLETSQEEIERQEKRRRQFIADVSHEMRTPLTTISGLTEGLVNDIIPKSETDRCIALIDTEARRLTKLVNENLDYEKIRSNKIKLQKTRFNGKEFLELIKEQLDYVASEKGNTITVAIDKDMAIYADYDRLTQVFINIVKNSVQFTENGQITLTGTQDYKESVLTITDTGIGMNTEELEQIWERFYKADMSRTNTAFGESGIGLSIVKQLIEYHDGSITVTSEPNKGTSFTIRLPFFQDNEQ | failed
MKQPTAVIFDWYNTLIDTSINIDRTTFYQVLDQMGYKNIDLDSIPNSTIPKYLITLLGKRWKEATILYENSLEKSQKSDNFMLNDGAIELLDTLKENNITMAIVSNKNGERLRSEIHHKNLTHYFDSIIGSGDTGTIKPSPEPVLAALTNINIEPSKEVFFIGDSISDIQSAIEAGCLPIKYGSTNIIKDILSFKNFYDIRNFICQLINI | not failed
MKQRRKGQENSDTEEMISRIYPYITRVFDIYEIQKSGEILYFFGTPKTDAENVMGELWAPLEQRGLGGTLKYELGEHVLIVTPVKKAKEKHWVNLALFIATVFTTMICGAWLFGVDLWSEPLQIFQGLPFTLAILAVLGSHEMAHYAMARHHGMKTSLPYFIPFPTFIGTMGAVIRYRGPIPDRKALFDVGIAGPLVGLLVSIVVTIIGLNLDVPAVKPLPDSLMFELGLPPLFVMLQKLVGVTGSNLHPVAFAGWVGMFVTLLNLLPAGQLDGGHVLRAMLGKKADWVSSMMPRILLMIGIYVVYGLKGDGFIWIFWALFLWAFAAAGHPSPLHDKMKLDRKRILIGILTFILGLLCFTLIPFKPIT | failed
MKQSKIRSVLQSIALLVLAGTAAAEPKLEKITHGRFEQIPVLRPDGEPQRVVIWFSGAGHVDQRTRQAELLRQDGAMVALVDTTHLYKVLAADSNHCTFSVGDVENLSRYLQAYYRDKTYRLPLLVGDGDGSGLVYAVAAQAPENILAGVVTDGLCP | failed
MKQSLQIWLEAARPKTLPLALVSILTGSVLAYSAGHFSLTIAIMAFATATLLQILSNLANDYGDAVKGTDNENRLGPQRAMQTGAVSAKQMKQAIIFNIVLTAISGLVLVFYALSSPESIITFIGLGILAIIAAIAYTMGSKPYGYVGLGDISVFLFFGLLGVSGTYFLHTGHVDTTLFLPALGCGLLAVAVLNINNMRDIENDRECGKRTVAVRLGQHKAKQYHFILLGGAILAFAAYLLIQDKPLWISLPFLLSVYVVIHHGKAVWDTEKPAQIAPMLPVIVKCSLVTNVLFATIVVAQTLVS | failed
MKQTELLKGILEGLVLAIIQRKETYGYEITKILNDQGFTEIVEGTVYTILLRLEKNQWVIAEKKPSEKGPMRKFYRLTSSGEAELADFWQRWTLLSKQVNKMKKNGGIEHVKF | not failed
MKRADIKRRPLADTTLTGLEPEAKEYRELDGNGLYFRVKPDGGKSWQLRYKRPAGNWAWMGLGGYPEVSGALAREKAAELRKTISSGIDPLEQKRSAKAAIDAAKTRTFRAAADAWLKAKEEKGLAPSTLNKIRTYLDKDILPALGDKPLDEITRTDCAELQASIEARDAHNVAEKCRTWINQIFGRAIGLGLTENDPGSRLRDIAAQAPKTQQHPHLLEPELGEFLTALKNTPSRLTARTAAWLCIWTASRPGMVRLAEWKEFDLDKATWTTPAAKMKMRRDFVCPLPHQAIAALKELHCLTGRSRWLFPGVGAKNPTISENTINKVFATIGYKGRLVGHGTRHTASTLLREHGWPKEHVEAQLAHKEEGISGVYNKAQYLEQRITMMQWYADHLDALEQGKVIQGQFGKAL | failed
MKRALEFLKECGVFYLATNEGDQPRVRPFGAVFEYEGKLYIVSNNTKKCFKQMIQNPKVEISGMNKKGQWIRLTGEVANDDRREVKELALEAVPSLKNMYSVDDGIFAVLYFTKGEGTICSFKGENETFSL | not failed
MKRAYKIEINPTDDQKSKIHQTIGVSRFIYNFYIAHNKEIYEKEGKFVSGMDFSKWLNNEYIPNNQDKKWIKEVSSKATKQAIMNGDKAFKDFFKKAKGFPRFKKKKNQDVKAYFPKNNKTDWTLERHRVKIPTLGWVRLKEFGYIPKNSVVKSGTVSQKADRYYVSILVEETYIKISNPNNEGLGIDLGIKEFAICSNGNKFKNINKTSTVKKIEKKLKREQRKLSRKYESLKIRNKNIKEGRATRQNIQKQVVKVQRLHQRLANIRTDYINKTVFSIVKQKPSYITIEDLAVSNMMKNKHLSKAISSQKFFEFKTKLMSKCKQNNIELRIVDRFYPSSKTCSNCGKIKKDLKLSDRIYKCDCGFTIDRDLNASINLKNAKEYKIA | failed
MKRGEELPPLEIEVTRTLIVAGAIASRDYQDVHHDAESARRRGSPDIFMNILTTNGLVGRYITDHFGPGAVLRKVAIRLGAPNYPGDTMVLTGTVVEVEGDTATVKVIGANGIGTHVRGTVTVTVPPGSASLEHHHHHH | failed
MKRIFSLLEKTWLGAPIQFAWQKTSGNYLAVTGADYIVKIFDRHGQKRSEINLPGNCVAMDWDKDGDVLAVIAEKSSCIYLWDANTNKTSQLDNGMRDQMSFLLWSKVGSFLAVGTVKGNLVIYNHQTSRKIPVLGKHTKRITCGCWNAENLPALGGEDKMITVSNQEGDTIRQTQVRSEPSNMQFFLMKMDDRTSAAESMISVVLGKKTLFFLNLNEPDNPADLEFQQDFGNIVCYNWYGDGRIMIGFSCGHFVVISTHTGELGQEIFQARNHKDNLTSIAVSQTLNKVATCGDNCIKIQDLVDLKDMYVILNLDEENKGLGTLSWTDDGQLLALSTQRGSLHVFLTKLPILGDACSTRIAYLTSLLEVTVANPVEGELPITVSVDVEPNFVAVGLYHLAVGMNNRAWFYVLGENAVKKLKDMEYLGTVASICLHSDYAAALFEGKVQLHLKAKSWMLTKNVRLGFSQQWMISAVSYAMP | failed
MKRIHVRYKQIRRFFLLLGLVIIAAYVAFVLYRYWDHWLLLSNPQKAIENFEQQFRSENLFNFLVLTVLTSLTAAIPFLSSSVLSVFNGVVFGPWIGVLMNTIGNILGHFFLIQMMSRVDLTERDSKFNHHLERLSQIKNPYLALTLGYMIPFIPSFLVDYMVLDTKIPWHRWLPCLTLGVIPTSILYAFGGHAIIAGNMKQLILIVLLALILLAIYKRFEKKKG | failed
MKRKIIVACGGAVATSTMAAEEIKELCQSHNIPVELIQCRVNEIETYMDGVHLICTTARVDRSFGDIPLVHGMPFVSGVGIEALQNKILTILQG | not failed
MKRKKLSIFILSAAIVTSSVSYGMTAKADEVKETKGYNYNVNLSEQKAVANNKISVKKVNGEILGYANPFTMLQILNMNGKTVEVITQSGLRGYVDANEFTLVESAVNDKLIEKNIEGHVTNVSTVLNLRKEPRIGAEIINRLLNNTKVNILGKQGSWYKIELNGQKGYVYGMFLNEGTMKENSSKTIANKKSEVKSKDKKEKKSSVKKEAKKEVVSGVKAKVVQKQREEAKANMTSEAKPAINKDAKSNNKVEVKSEVKKEAKNEVKTEMNSSTKVETSQVVTSEMVQAVNTEVKSEKNQEANLQVRPEIKSEEKTEMISKENLNVIPEAKKEGISEEIKPEVNTEVESKPEMNKEVKAEEGKTAPEVKLEEKQEVKPVEASEEKVEVKKEEVQDPKAKEMDELLKSEEYKFLRMSISYGERLVDRNDVYTKDSLKILRTELEKAKKVFQDKDNLTMKLVQDTRDDLERAIVDLVKISDVKKPVKSKAKVEVKKESNTEKKQEVKEQPAKAEVIVPEVKENKEIKKEEPVKAKEVVKEKKSREEEIEEILKSEEYRFLLKDIAYGERLSEKITVYTRDSLKVLNAAIEKAGRIVRQKEKLTVKLVQDTRDDVDRAIVDLVKKNN | failed
